According to publication PMC9020517:

Legend:
[1] = target: Parkin (UniProt O60260); assay: Strep-Tactin pull-down, anti-Parkin blot; details: reference: unmodified Strep-NEDD8; sites S65
[2] = target: HDAC6 (UniProt Q9UBN7); assay: Strep bait enrichment from lysate, Western blot; details: reference: unmodified Strep-NEDD8; sites S65

## NEDD8 1-76 (from UniProt Q15843) Strep-pNEDD8 (pS65)
[1]
  binding against the reference: stronger
[2]
  binding against the reference: stronger
